Experimental data reported in publication PMC7861563, “FOXP1 Interacts with MyoD to Repress its Transcription and Myoblast Conversion” (Journal of cellular signaling, 2021).
One block for each molecule: values may come before it.

What was measured:
[1] = target: MyoD, bacterially expressed (UniProt P10085)
[2] = target: T1, Myoblast Determination protein 1 (MYOD1/MyoD), endogenous in C2C12 (mouse (endogenous in C2C12), UniProt P10085 1-318); assay: cell-based or functional assay
T1 sequence (looked up): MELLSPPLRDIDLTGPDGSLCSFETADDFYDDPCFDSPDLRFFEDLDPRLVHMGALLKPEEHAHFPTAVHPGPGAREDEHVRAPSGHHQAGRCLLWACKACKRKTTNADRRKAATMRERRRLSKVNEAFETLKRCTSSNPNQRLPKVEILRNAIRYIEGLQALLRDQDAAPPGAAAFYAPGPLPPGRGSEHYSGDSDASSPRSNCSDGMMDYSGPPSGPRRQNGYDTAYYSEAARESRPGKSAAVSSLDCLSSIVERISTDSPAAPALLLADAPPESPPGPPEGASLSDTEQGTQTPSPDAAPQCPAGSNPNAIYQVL

EMSA titration: amount of GST-Fkh for full inhibition of DNA binding of MyoD homodimers (200ng/reaction) [1]: 100 ng
EMSA titration: amount of GST-Fkh for full inhibition of DNA binding of MyoD-E47N (MyoD 200ng, E47N 50ng/reaction) [1]: 400 ng
Molecule: GST-FOXP Forkhead domain (GST-Fkh) (domain or fragment)

MCK enhancer E box firefly luciferase reporter in 10T1/2 cells after 5-azacytidine, FOXP1 expression plasmid in varying amounts (highest input ~3-fold molar excess over MyoD) [2]: ~20 fold
luciferase reporter driven by 2 E-box consensus MyoD binding sites (2R-luc) in differentiating C2C12, normalized to β-galactosidase [2]: ~12 fold
B1: Forkhead Box P1 (FOXP1), endogenous in C2C12 (natural protein, mouse (endogenous in C2C12), UniProt P58462 1-705, looked up)
chain: MMQESGSETKSNGSAIQNGSSGGNHLLECGALRDTRSNGEAPAVDLGAADLAHVQQQQQQALQVARQLLLQQQQQQQQQQQQQQQQQQQQQQQQQQQQQQQQQQQQQVSGLKSPKRNDKQPALQVPVSVAMMTPQVITPQQMQQILQQQVLSPQQLQVLLQQQQALMLQQQLQEFYKKQQEQLQLQLLQQQHAGKQPKEQQVATQQLAFQQQLLQMQQLQQQHLLSLQRQGLLTIQPGQPALPLQPLAQGMIPTELQQLWKEVTSAHTAEETTSSNHSSLDLTSTCVSSSAPSKSSLIMNPHASTNGQLSVHTPKRESLSHEEHPHSHPLYGHGVCKWPGCEAVCDDFPAFLKHLNSEHALDDRSTAQCRVQMQVVQQLELQLAKDKERLQAMMTHLHVKSTEPKAAPQPLNLVSSVTLSKSASEASPQSLPHTPTTPTAPLTPVTQGPSVITTTSMHTVGPIRRRYSDKYNVPISSADIAQNQEFYKNAEVRPPFTYASLIRQAILESPEKQLTLNEIYNWFTRMFAYFRRNAATWKNAVRHNLSLHKCFVRVENVKGAVWTVDEVEFQKRRPQKISGNPSLIKNMQSSHAYCTPLNAALQASMAENSIPLYTTASMGNPTLGSLASAIREELNGAMEHTNSNESDSSPGRSPMQAVHPIHVKEEPLDPEEAEGPLSLVTTANHSPDFDHDRDYEDEPVNEDME
